Assay results from the Human Domainome abundance scans (Beltran et al. 2025).
± gives the uncertainty stated by the source.

B1: Retinoic acid receptor RXR-alpha, residues 132 to 208; numbered along this chain, P19793 (parent)
chain: KHICAICGDRSSGKHYGVYSCEGCKGFFKRTVRKDLTYTCRDNKDCLIDKRQRNRCQYCRYQKCLAMGMKREAVQEE
B2: Friend leukemia integration 1 transcription factor, residues 116 to 197; numbered along this chain, Q01543 (parent)
chain: NMTTNERRVIVPADPTLWTQEHVRQWLEWAIKEYSLMEIDTSFFQNMDGKELCKMNKEDFLRATTLYNTEVLLSHLSYLRES

Variants of: B1
Experiment: abundance fitness (aPCA) (normalised: wild type 0, dead -1); higher = more abundant; growth selection in yeast, the domain comes from the species named
Conditions: Homo sapiens

Abundance fitness of substitutions, site by site:
Q75: N -0.052 ± 0.037 | P -0.002 ± 0.033 | R 0.003 ± 0.031 | S -0.004 ± 0.028 | T -0.011 ± 0.028 | V 0.013 ± 0.034 | W -0.129 ± 0.054 | Y -0.092 ± 0.036
E76: C 0.023 ± 0.044 | D 0.05 ± 0.041 | F 0.003 ± 0.035 | G 0.05 ± 0.038 | H -0.012 ± 0.036 | K -0.099 ± 0.06 | L 0.01 ± 0.028 | M -0.036 ± 0.042 | N 0.022 ± 0.037 | P -0.054 ± 0.034 | Q 0.001 ± 0.044 | R -0.037 ± 0.036 | S -0.034 ± 0.029 | T -0.049 ± 0.032 | V 0 ± 0.035 | W -0.052 ± 0.053 | Y -0.011 ± 0.035
E77: C 0.013 ± 0.041 | D -0.002 ± 0.05 | F 0.1 ± 0.058 | G 0.073 ± 0.038 | H 0.02 ± 0.039 | I 0.038 ± 0.044 | K 0.008 ± 0.077 | L -0.012 ± 0.039 | M -0.034 ± 0.057 | N 0.065 ± 0.049 | Q -0.012 ± 0.055 | R 0.003 ± 0.035 | T 0.106 ± 0.041 | V -0.002 ± 0.041 | W 0.04 ± 0.061 | Y 0.023 ± 0.044

Variants of: B2
Experiment: as above
Conditions: Homo sapiens

Abundance fitness of substitutions, site by site:
N1: A -0.076 ± 0.25 | G -0.212 ± 0.14 | I 0.178 ± 0.41 | K -0.34 ± 0.35 | L -0.137 ± 0.45 | M -0.031 ± 0.19 | R -0.111 ± 0.2 | V -0.166 ± 0.12 | Y 0.004 ± 0.3
M2: D -0.545 ± 0.48 | E -0.361 ± 0.18 | F 0.092 ± 0.17 | G 0.119 ± 0.12 | I -0.081 ± 0.12 | K -0.314 ± 0.14 | L -0.005 ± 0.07 | N -0.184 ± 0.31 | P -0.099 ± 0.13 | Q 0.011 ± 0.16 | R 0.057 ± 0.089 | T -0.231 ± 0.13 | V -0.584 ± 0.11 | W -0.057 ± 0.14
T3: A 0.089 ± 0.16 | C 0.009 ± 0.2 | D -0.537 ± 0.5 | E -0.392 ± 0.3 | F 0.111 ± 0.41 | G -0.098 ± 0.11 | H -0.359 ± 0.15 | I -0.078 ± 0.21 | K 0.185 ± 0.18 | L -0.076 ± 0.076 | M 0.037 ± 0.11 | N -0.076 ± 0.44 | P -0.246 ± 0.089 | Q -0.136 ± 0.12 | R -0.169 ± 0.094 | S 0.06 ± 0.14 | V -0.201 ± 0.13 | W -0.022 ± 0.096 | Y -0.201 ± 0.44
T4: A 0.069 ± 0.089 | D 0.045 ± 0.14 | F -0.048 ± 0.12 | G -0.065 ± 0.11 | H -0.115 ± 0.1 | I 0.017 ± 0.15 | K -0.005 ± 0.1 | M -0.075 ± 0.18 | N 0.076 ± 0.23 | P -0.037 ± 0.095 | Q -0.085 ± 0.092 | V 0.003 ± 0.09 | W -0.03 ± 0.17
N5: C 0.019 ± 0.2 | D -0.011 ± 0.13 | E -0.039 ± 0.099 | F -0.089 ± 0.21 | G -0.042 ± 0.066 | H -0.06 ± 0.23 | K 0.004 ± 0.064 | M -0.127 ± 0.12 | P -0.017 ± 0.078 | Q -0.228 ± 0.12 | R -0.042 ± 0.054 | S -0.152 ± 0.1 | T 0.056 ± 0.08 | Y -0.121 ± 0.12
E6: A -0.185 ± 0.095 | C -0.23 ± 0.39 | F -0.435 ± 0.21 | G -0.179 ± 0.09 | H -0.377 ± 0.49 | I -0.087 ± 0.15 | L 0.001 ± 0.068 | M -0.163 ± 0.15 | N -0.022 ± 0.17 | P -0.126 ± 0.091 | Q -0.174 ± 0.15 | S -0.028 ± 0.084 | T -0.013 ± 0.13 | V -0.092 ± 0.082 | Y -0.308 ± 0.21
R7: A -0.243 ± 0.1 | C -0.06 ± 0.4 | E -0.044 ± 0.096 | F -0.179 ± 0.23 | G -0.135 ± 0.092 | H -0.284 ± 0.24 | I -0.247 ± 0.28 | K -0.292 ± 0.29 | L 0.155 ± 0.058 | M -0.089 ± 0.14 | P -0.045 ± 0.1 | Q -0.092 ± 0.14 | S -0.156 ± 0.097 | V -0.05 ± 0.11 | W -0.179 ± 0.11 | Y -0.125 ± 0.21
R8: A -0.172 ± 0.099 | C -0.301 ± 0.26 | D 0.015 ± 0.2 | E 0.045 ± 0.13 | F -0.174 ± 0.2 | G -0.52 ± 0.12 | H -0.039 ± 0.14 | I -0.406 ± 0.21 | L -0.369 ± 0.1 | M -0.108 ± 0.1 | P -0.026 ± 0.12 | Q -0.097 ± 0.11 | S -0.215 ± 0.09 | T -0.236 ± 0.14 | V -0.297 ± 0.14 | W -0.452 ± 0.18 | Y -0.403 ± 0.24
V9: A 0.14 ± 0.075 | C 0.046 ± 0.17 | D -0.055 ± 0.3 | F -0.018 ± 0.2 | H 0.099 ± 0.34 | I -0.122 ± 0.12 | K 0.116 ± 0.098 | L -0.045 ± 0.068 | M -0.156 ± 0.095 | N 0.18 ± 0.16 | R 0.172 ± 0.059 | S 0.212 ± 0.073 | T 0.039 ± 0.098 | W 0 ± 0.091 | Y -0.605 ± 0.46
I10: A 0.15 ± 0.11 | C -0.258 ± 0.17 | D 0.207 ± 0.16 | E 0.231 ± 0.08 | F -0.216 ± 0.16 | G 0.163 ± 0.082 | H -0.033 ± 0.16 | K 0.086 ± 0.12 | L -0.148 ± 0.069 | M -0.012 ± 0.1 | N 0.103 ± 0.23 | P 0.26 ± 0.088 | Q 0.03 ± 0.1 | R 0.098 ± 0.072 | S 0.231 ± 0.12 | T 0.092 ± 0.089 | V 0.035 ± 0.075 | W -0.197 ± 0.12 | Y -0.237 ± 0.19
V11: A 0.118 ± 0.07 | C 0.217 ± 0.089 | D -0.004 ± 0.077 | E 0.015 ± 0.067 | F 0.166 ± 0.086 | G 0.061 ± 0.043 | H -0.032 ± 0.14 | I -0.019 ± 0.086 | K 0.148 ± 0.1 | M 0.114 ± 0.088 | N 0.094 ± 0.1 | P 0.245 ± 0.11 | Q -0.024 ± 0.093 | R 0.232 ± 0.044 | S 0.156 ± 0.055 | T 0.077 ± 0.077 | W 0.198 ± 0.064 | Y 0.031 ± 0.1
P12: A -0.186 ± 0.093 | C -0.178 ± 0.15 | D 0.095 ± 0.15 | E 0.12 ± 0.15 | F -0.225 ± 0.16 | G -0.039 ± 0.088 | H -0.085 ± 0.11 | I -0.193 ± 0.32 | K -0.155 ± 0.12 | L -0.344 ± 0.098 | M -0.095 ± 0.12 | N -0.021 ± 0.27 | R -0.053 ± 0.077 | S 0.079 ± 0.087 | T -0.021 ± 0.097 | V -0.447 ± 0.1 | Y -0.227 ± 0.19
A13: D 0.121 ± 0.088 | E 0.189 ± 0.068 | F -0.081 ± 0.086 | G 0.123 ± 0.05 | H -0.179 ± 0.14 | I 0.048 ± 0.1 | L -0.003 ± 0.04 | M -0.036 ± 0.072 | N 0.183 ± 0.11 | P 0.162 ± 0.065 | Q 0.106 ± 0.07 | R 0.023 ± 0.041 | T 0.051 ± 0.077 | V 0.017 ± 0.055 | W 0.023 ± 0.063 | Y -0.072 ± 0.084
D14: A -0.237 ± 0.1 | C -0.164 ± 0.15 | E 0.096 ± 0.12 | F -0.517 ± 0.22 | I -0.467 ± 0.24 | K -0.564 ± 0.19 | L -0.51 ± 0.091 | M -0.421 ± 0.14 | N -0.063 ± 0.21 | P -0.415 ± 0.26 | Q 0.155 ± 0.27 | R -0.701 ± 0.12 | S -0.229 ± 0.17 | T -0.388 ± 0.12 | V -0.353 ± 0.1 | W -0.354 ± 0.14 | Y 0.011 ± 0.26
P15: C -0.398 ± 0.076 | D -0.489 ± 0.18 | E -0.854 ± 0.13 | F -0.851 ± 0.18 | G -1.07 ± 0.12 | H -0.892 ± 0.28 | I -0.028 ± 0.085 | K -1.09 ± 0.31 | Q -0.543 ± 0.13 | R -0.92 ± 0.096 | S -0.565 ± 0.085 | T -0.42 ± 0.08 | V -0.056 ± 0.048 | W -0.942 ± 0.16 | Y -0.512 ± 0.15
T16: A 0.086 ± 0.11 | C -0.357 ± 0.45 | D -0.082 ± 0.38 | E -0.159 ± 0.18 | F 0 ± 0.24 | G -0.142 ± 0.094 | I -0.036 ± 0.3 | K -0.057 ± 0.055 | L -0.108 ± 0.089 | M -0.022 ± 0.12 | N -0.22 ± 0.33 | P -0.277 ± 0.17 | Q -0.306 ± 0.21 | R -0.139 ± 0.12 | S -0.087 ± 0.12 | V -0.052 ± 0.15 | W -0.021 ± 0.13 | Y -0.166 ± 0.47
L17: A 0.032 ± 0.075 | D 0.224 ± 0.24 | E 0.087 ± 0.085 | F -0.132 ± 0.17 | G 0.09 ± 0.083 | H 0.081 ± 0.18 | I 0.024 ± 0.21 | K -0.085 ± 0.096 | M -0.328 ± 0.14 | N -0.289 ± 0.17 | Q 0.037 ± 0.088 | R -0.042 ± 0.064 | S 0.008 ± 0.099 | T -0.011 ± 0.096 | V 0.018 ± 0.065 | W -0.203 ± 0.081 | Y -0.096 ± 0.16
W18: A -0.879 ± 0.14 | D -0.803 ± 0.31 | F -0.719 ± 0.49 | G -0.458 ± 0.1 | K -1.18 ± 0.31 | L -0.868 ± 0.2 | M -0.616 ± 0.21 | P -0.753 ± 0.097 | Q -0.891 ± 0.1 | R -0.563 ± 0.12 | S -0.981 ± 0.35 | Y -0.759 ± 0.39
T19: A -0.309 ± 0.14 | C -0.296 ± 0.27 | E -0.597 ± 0.38 | F -0.79 ± 0.47 | G -0.194 ± 0.097 | H 0.12 ± 0.12 | I -0.529 ± 0.2 | K -0.12 ± 0.13 | L -0.243 ± 0.063 | M -0.39 ± 0.11 | N -0.263 ± 0.17 | P -1.02 ± 0.48
